Experimental data taken from patent US20260097129A1, “ANTIBODY-DRUG CONJUGATE COMPRISING DRUG AND ANTIBODY SPECIFICALLY BINDING TO GRP94 OR ANTIGEN-BINDING FRAGMENT THEREOF” (KOOKMIN UNIVERSITY INDUSTRY ACADEMY COOPERATION FOUNDATION, priority 2022, published 2026).

What was measured:
HCT116 cells = experiment: Antibody internalization, FabFluor-pH Red labeling, Incucyte live cell imaging; assay type: cell-based, human
Protocol: Antibody internalization in HCT116 cells was measured using the FabFluor-pH Red Antibody Labeling Reagent (Sartorius, Gottingen, Germany) according to the manufacturer's instructions. […] HCT116 cells were seeded at a density of 10,000 cells/well in a 96-well culture plate and allowed to adhere overnight. The control IgG, K101.1, or trastuzumab (MedChemExpress, Princeton, NJ, USA) were individually labeled with the human FabFluor-pH Red antibody labeling reagent at a 1:3 molar ratio in PBS and incubated for 15 minutes. The labeled antibodies were added to the cell culture medium at a final concentration of 2 μg/ml. The plate was transferred to the Incucyte SX1 live cell analysis system (Sartorius) and images were captured with a 10× objective lens for 12 hours. The fluorescence intensity was individually measured for each image.
The internalization of antibodies in HCT116 cells was measured using the FabFluor-pH Red antibody labeling reagent (Sartorius, Göttingen, Germany) according to the manufacturer's instructions. […] However, after internalization of the reagent-labeled antibody, the fluorescence intensity increases under the acidic conditions inside endosomes and lysosomes. HCT116 cells were seeded at a density of 10,000 cells per well in a 96-well culture plate and allowed to attach overnight. […] Fluorescence intensity was then measured.

HT29 = experiment: Cell proliferation assay, real-time live cell imaging (Incucyte); assay type: cell-based, human; settings: 133 nM K101.1, 33 nM and 133 nM K101.1-Sec-DM1, 62 hours, FIG. 9
Protocol: (§1) To investigate the effect of K101.1-Sec-DM1 on CRC cell growth in vitro, 1×10^4 HT29, LoVo, or 5×10^3 HCT116 CRC cells were seeded in the wells of a 96-well plate and incubated at 37° C. for 16 hours. The cells were then treated with either 133 nM of K101.1 or 33 nM and 133 nM of K101.1-Sec-DM1, with or without the presence of the drug. Cell growth was measured for 62 hours using the Incucyte SX1 live cell analysis instrument (Sartorius).

LoVo = experiment: as above; assay type: cell-based, human; settings: 133 nM K101.1, 33 nM and 133 nM K101.1-Sec-DM1, 62 hours, FIG. 9
Protocol: as §1

HCT116 = experiment: as above; assay type: cell-based, human; settings: 133 nM K101.1, 33 nM and 133 nM K101.1-Sec-DM1, 62 hours, FIG. 9
Protocol: as §1

rmGRP94 = rmGRP94 (Mus musculus, UniProt P08113); experiment: ELISA binding to immobilized rmGRP94; settings: immobilized rmGRP94, FIG. 8
rhGRP94 = rhGRP94 (Homo sapiens, UniProt P14625); experiment: ELISA binding to immobilized rhGRP94; settings: immobilized rhGRP94, FIG. 8
Protocol: (§2) A 96-well microplate was coated with 0.1 μg of rhGRP94 and incubated at 4° C. for 16 hours. After blocking the plate with 3% (w/v) BSA in PBS at 37° C. for 2 hours, the plate was incubated with 20 µg/mL of K101.1-Sec (SelT) at 37° C. for 2 hours. After washing the plate three times with PBS-T, it was incubated with HRP-conjugated anti-human Fc secondary antibody (1:5,000; Invitrogen) or HRP-conjugated anti-HA antibody (1:3,000; Bethyl Laboratories, Montgomery, TX, USA) at 37° C. for 1 hour. The color reaction was initiated with 100 μL of TMB substrate solution and terminated with 2N H2SO4 solution. Optical density was measured at 450 nm using a microplate reader.
as §2, with “blocking” for “blocking the plate”, “20 μg/mL” for “20 µg/mL”, “washing” for “washing the plate”, “PBS-T, the plate” for “PBS-T, it”, “Invitrogen)” for “Invitrogen) or HRP-conjugated anti-HA antibody (1:3,000; Bethyl Laboratories, Montgomery, TX, USA)”

Sequence of rmGRP94 (P08113 22-802): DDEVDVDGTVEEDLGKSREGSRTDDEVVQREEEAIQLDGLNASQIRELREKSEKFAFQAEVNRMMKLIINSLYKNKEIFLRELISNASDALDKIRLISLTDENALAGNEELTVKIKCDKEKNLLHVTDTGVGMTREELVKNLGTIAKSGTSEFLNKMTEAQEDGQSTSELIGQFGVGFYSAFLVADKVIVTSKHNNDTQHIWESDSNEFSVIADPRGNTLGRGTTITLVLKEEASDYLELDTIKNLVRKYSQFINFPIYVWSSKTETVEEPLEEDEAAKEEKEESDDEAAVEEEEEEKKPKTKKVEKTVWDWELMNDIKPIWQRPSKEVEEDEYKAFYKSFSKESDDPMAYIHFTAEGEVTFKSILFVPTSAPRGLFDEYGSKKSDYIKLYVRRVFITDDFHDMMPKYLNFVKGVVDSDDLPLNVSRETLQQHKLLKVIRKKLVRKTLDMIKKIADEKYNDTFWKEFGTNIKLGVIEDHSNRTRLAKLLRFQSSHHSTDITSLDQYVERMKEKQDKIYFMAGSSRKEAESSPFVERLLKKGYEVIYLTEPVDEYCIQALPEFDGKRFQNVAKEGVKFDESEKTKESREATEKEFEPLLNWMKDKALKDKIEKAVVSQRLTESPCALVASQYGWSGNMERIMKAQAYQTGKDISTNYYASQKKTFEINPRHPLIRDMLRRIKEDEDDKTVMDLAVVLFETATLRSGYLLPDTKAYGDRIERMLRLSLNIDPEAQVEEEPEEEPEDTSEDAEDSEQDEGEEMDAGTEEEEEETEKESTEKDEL
Sequence of rhGRP94 (P14625 22-803): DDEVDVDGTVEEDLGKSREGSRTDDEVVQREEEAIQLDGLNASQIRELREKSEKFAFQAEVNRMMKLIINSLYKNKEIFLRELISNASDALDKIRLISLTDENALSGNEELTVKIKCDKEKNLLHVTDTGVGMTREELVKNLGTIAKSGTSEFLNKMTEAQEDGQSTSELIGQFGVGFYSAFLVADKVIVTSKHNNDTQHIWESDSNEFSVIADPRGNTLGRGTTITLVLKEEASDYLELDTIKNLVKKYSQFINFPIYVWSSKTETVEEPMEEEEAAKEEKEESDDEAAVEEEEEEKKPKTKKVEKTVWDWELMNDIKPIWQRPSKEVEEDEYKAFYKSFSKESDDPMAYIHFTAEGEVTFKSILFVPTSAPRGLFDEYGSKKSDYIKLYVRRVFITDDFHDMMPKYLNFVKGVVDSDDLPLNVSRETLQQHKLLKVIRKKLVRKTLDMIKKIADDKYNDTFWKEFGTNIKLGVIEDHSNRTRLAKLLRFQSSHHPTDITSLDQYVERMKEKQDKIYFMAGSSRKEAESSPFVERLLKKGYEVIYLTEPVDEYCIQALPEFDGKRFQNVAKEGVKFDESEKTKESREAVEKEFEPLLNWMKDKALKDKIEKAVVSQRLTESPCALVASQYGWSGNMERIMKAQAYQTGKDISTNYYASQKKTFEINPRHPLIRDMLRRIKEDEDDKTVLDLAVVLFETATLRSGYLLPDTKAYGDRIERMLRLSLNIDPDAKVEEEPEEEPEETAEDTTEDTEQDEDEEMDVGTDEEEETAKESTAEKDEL

B1: K101.1: GRP94-specific IgG antibody, CDRs SEQ ID NO: 1-6, VH SEQ ID NO: 7, VL SEQ ID NO: 8 (antibody, V domains shown)
VH: EVQLLESGGGLVQPGGSLRLSCAASGFTFSNYSMSWVRQAPGKGLEWVSGIYYGSGNKYYADSVKGRFTISRDNSKNTLYLQMNSLRAEDTAVYYCAKNLASFDYWGQGTLVTVSS
VL: QSVLTQPPSASGTPGQRVTISCSGSSSNIGSNSVNWYQQLPGTAPKLLIYSNSHRPSGVPDRFSGSKSGTSASLAISGLRSEDEADYYCGTWDSSLSGYVFGGGTKLTVL
HCT116 cells; labeled antibody 2 μg/mL, imaged for 10 hours, Example 2, FIG. 10
  antibody internalization (FabFluor fluorescence intensity): exhibited stronger internalization than trastuzumab
HCT116 cells; labeled antibody 2 μg/ml, imaged for 12 hours, Example 1, FIG. 1
  antibody internalization (FabFluor red fluorescence intensity): promoted internalization more efficiently than trastuzumab
HT29
  effect on CRC cell growth: little to no effect
LoVo
  effect on CRC cell growth: little to no effect
HCT116
  effect on CRC cell growth: little to no effect

B2: K101.1-Sec-DM1 (conjugate)
heavy: EVQLLESGGGLVQPGGSLRLSCAASGFTFSNYSMSWVRQAPGKGLEWVSGIYYGSGNKYYADSVKGRFTISRDNSKNTLYLQMNSLRAEDTAVYYCAKNLASFDYWGQGTLVTVSS
light: QSVLTQPPSASGTPGQRVTISCSGSSSNIGSNSVNWYQQLPGTAPKLLIYSNSHRPSGVPDRFSGSKSGTSASLAISGLRSEDEADYYCGTWDSSLSGYVFGGGTKLTVL
modifications: non-natural residues; left off: small tags and cut ends; large carriers
rmGRP94
  antigen binding by ELISA compared with parent antibody K101.1: no significant difference in antigen binding
rhGRP94
  antigen binding by ELISA compared with parent antibody K101.1: no significant difference in antigen binding
HT29
  effect on CRC cell growth: significantly and more strongly inhibited the growth
LoVo
  effect on CRC cell growth: significantly and more strongly inhibited the growth
HCT116
  effect on CRC cell growth: significantly and more strongly inhibited the growth
